Source: patent US20100041597A1 (published 2010)

T1: PKC-ζ (purified isoform) (Homo sapiens (Human), UniProt Q05513 1-592)
T1 construct: also called PKC-zeta; PKCzeta
T1 sequence: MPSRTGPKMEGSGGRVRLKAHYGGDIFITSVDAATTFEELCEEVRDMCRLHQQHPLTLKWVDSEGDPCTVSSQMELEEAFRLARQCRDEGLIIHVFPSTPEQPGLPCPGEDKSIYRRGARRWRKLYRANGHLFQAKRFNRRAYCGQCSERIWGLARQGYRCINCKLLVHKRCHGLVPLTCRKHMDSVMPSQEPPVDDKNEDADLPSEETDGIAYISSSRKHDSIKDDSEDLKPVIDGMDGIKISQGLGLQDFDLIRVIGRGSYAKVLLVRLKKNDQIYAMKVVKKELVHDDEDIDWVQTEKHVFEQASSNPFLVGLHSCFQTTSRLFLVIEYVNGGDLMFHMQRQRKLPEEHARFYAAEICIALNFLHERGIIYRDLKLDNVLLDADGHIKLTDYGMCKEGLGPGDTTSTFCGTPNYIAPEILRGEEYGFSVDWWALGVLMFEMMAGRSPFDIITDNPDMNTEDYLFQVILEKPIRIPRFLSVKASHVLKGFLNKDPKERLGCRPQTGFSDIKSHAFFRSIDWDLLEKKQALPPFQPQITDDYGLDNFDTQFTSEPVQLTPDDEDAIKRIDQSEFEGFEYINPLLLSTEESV

T2: PKC-ι (endogenous, human cell extracts) (human, UniProt P41743 2-596)
T2 construct: also called PKC-iota
T2 sequence (looked up): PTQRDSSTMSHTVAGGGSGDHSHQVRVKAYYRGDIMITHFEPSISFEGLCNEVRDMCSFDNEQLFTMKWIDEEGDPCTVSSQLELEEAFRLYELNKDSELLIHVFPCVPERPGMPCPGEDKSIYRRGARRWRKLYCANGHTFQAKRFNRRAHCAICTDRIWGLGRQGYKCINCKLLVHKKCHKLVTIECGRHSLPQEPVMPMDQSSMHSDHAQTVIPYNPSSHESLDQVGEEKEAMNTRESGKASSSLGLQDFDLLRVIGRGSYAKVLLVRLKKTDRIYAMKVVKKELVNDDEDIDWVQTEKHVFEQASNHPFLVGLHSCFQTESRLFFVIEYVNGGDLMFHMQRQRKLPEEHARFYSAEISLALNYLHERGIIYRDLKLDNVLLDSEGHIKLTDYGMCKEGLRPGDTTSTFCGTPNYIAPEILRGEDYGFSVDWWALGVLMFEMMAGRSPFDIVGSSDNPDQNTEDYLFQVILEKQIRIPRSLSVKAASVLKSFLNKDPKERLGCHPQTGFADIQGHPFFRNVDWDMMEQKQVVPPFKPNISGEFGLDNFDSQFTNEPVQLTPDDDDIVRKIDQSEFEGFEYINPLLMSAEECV


Columns and labels:
PKC-ζ (purified isoform) = target: T1, PKC-ζ (purified isoform); assay: summary grade, purified isoform ELISA
[1] = target: T3, PKC-βII (purified isoform) (Homo sapiens (Human), UniProt P05771 2-621); assay: competitive ELISA on purified PKC-βII vs anti-PKC-βII Ab; PRE 100 µM
T3 construct: also called PKC-beta II
T3 sequence (P05771 other isoform, or with tags, fused parts or gaps limits assumed): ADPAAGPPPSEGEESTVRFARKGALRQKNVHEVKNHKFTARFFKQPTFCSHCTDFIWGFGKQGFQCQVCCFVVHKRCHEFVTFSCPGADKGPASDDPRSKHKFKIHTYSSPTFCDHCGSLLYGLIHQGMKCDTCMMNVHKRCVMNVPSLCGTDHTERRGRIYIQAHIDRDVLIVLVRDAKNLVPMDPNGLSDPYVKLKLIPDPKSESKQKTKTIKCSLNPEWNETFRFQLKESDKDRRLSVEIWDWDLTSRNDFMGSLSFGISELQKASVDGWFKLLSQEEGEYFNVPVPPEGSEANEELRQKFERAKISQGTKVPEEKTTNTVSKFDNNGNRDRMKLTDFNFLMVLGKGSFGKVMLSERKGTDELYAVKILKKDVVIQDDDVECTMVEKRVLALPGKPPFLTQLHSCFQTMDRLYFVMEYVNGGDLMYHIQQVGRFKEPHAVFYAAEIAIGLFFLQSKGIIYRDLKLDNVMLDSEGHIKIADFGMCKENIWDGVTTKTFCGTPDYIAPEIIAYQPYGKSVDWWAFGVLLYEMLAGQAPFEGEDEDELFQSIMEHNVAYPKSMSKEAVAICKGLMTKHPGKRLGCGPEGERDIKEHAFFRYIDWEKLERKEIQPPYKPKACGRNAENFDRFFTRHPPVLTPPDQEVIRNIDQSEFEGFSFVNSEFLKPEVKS
Description: (§1) Greiner 96 well ELISA plates were coated with the appropriate PKC isoform diluted in PBSN (PBS with Calcium/Magnesium+0.05% Sodium azide w/w). 50 μL/well at 250 ng/mL was used. Control wells contained PBSN only. Plates were incubated overnight at 4° C.
(§2) The plates were washed 3 times with 200 μL of dH₂O per well, then 100 μL of blocking solution was added per well and the plate incubated for 1 h at 37° C. The washing steps with dH₂O were repeated and 50 μL of the appropriate PRE solution (PRE stock solution [20 mM in DMSO] diluted in PBSN) was added and the plate incubated for 1 h at room temperature.
(§3) 50 μL of 1:1000 dilution of Alkaline Phosphatase (AP) conjugated antibody (anti-rabbit for all except zeta, which was anti-goat) was then added and the plate incubated for 1 h at room temperature. Washing with dH₂O was then repeated. Finally, 100 μL of pNPP solution in pNPP buffer (2 mM MgCl₂, 100 mM Sodium bicarbonate in water, pH 9.8) was added to all wells and incubated for 8 minutes for α, βI, βII ε, and ζ, or for 15-20 mins for […] (until sufficient coloration is observed). The reaction was stopped by addition of Stop solution (2N NaOH) and the absorbance at 405 nm was read on a Galaxy Plate reader.

[2] = target: T2, PKC-ι (endogenous, human cell extracts); assay: Western-blot competition on cell extracts against the anti-PKC-ι primary antibody; band densitometry
Description: Binding efficiency and specificity of the peptides PRE 2, 3, 4, 5, 6, 7, 8, 9, 10, 11, 12 and 13 (see Table 3) was also tested using cytoplasmic extracts from different cell lines expressing appropriate PKC isoforms as described for Example 1. Briefly, the protein cytoplasmic extracts were separated by electrophoresis and transferred onto nitrocellulose membranes by standard Western blotting procedures. The bands on the Western blots were detected with matching primary antibodies and alkaline phosphatase conjugated secondary antibody. The bands were then scanned and the relative density measurements obtained.
This procedure to assess the binding characteristics of the PREs is based on competition binding of the PRE with the primary anti-isoform PKC specific antibodies. The lower the measured band density, the greater the binding of the PRE to the PKC isoform. The PREs were added at 10 and 20 times (10×, 20×) the primary antibody concentration, according to classical competition between antigenic peptide and primary antibody. The following cell lines (obtained from the ATCC) were used: H661—NCI human lung carcinoma NSCLC; MDAMB231—human highly invasive breast cancer cell line from pleural effusion; LS180—human colon adenocarcinoma; LnCAP—human prostate adenocarcinoma; CCD16Lu—human lung fibroblasts; Du145—human prostate carcinoma brain metastasis, and T24—human bladder carcinoma.

PKC-α (purified isoform) [3] = target: T4, PKC-α (purified isoform) (Homo sapiens (Human), UniProt P17252 2-672); assay: competitive ELISA on purified PKC-α vs anti-PKC-α Ab; PRE 50 µM
T4 construct: also called PKC-alpha; PKCalpha
Description: as §1, §2, §3

PKC-α (purified isoform) [4] = target: T4, PKC-α (purified isoform); assay: competitive ELISA on purified PKC-α vs anti-PKC-α Ab; PRE 100 µM
Description: as §1
After incubation, 5 μL of 1.1:400 anti-PKC (isoform specific antibody) was added per well (to provide a final concentration of 1:4000). For PKC-epsilon, 1.1:800 dilution was used and for PKC-zeta a 1.1:100 dilution was used due to high and low binding affinity, respectively. The plates were then incubated 1 h at room temperature, followed by washing with dH₂O as described above.
as §3

Binder | binding result (PKC-ζ (purified isoform)) | binding capacity (%) [1] | binding capacity (%) (PKC-α (purified isoform) [3]) | binding capacity (%) (PKC-α (purified isoform) [4]) | binding result [2]
Ac-AKGIQEVKGGDAQNLIGISI-NH2 (Synthetic peptide; also called peptide PRE 3) [PRE 3] | – | – | 17.5% | 26.5% | –
Ac-KDAQNLIGISI-NH2 (Synthetic peptide; also called peptide PRE 4) [PRE 4] | – | 13.5% | 6.46% | 21.9% | –
Ac-KDAQNLI-NH2 (Synthetic peptide; also called peptide PRE 12; Ac-KDAQNLI-NH2) [PRE 12] | – | – | 3.29% | 5.16% | –

Continued, in another order:

binding result (PKC-ζ (purified isoform)) | binding capacity (%) [1] | binding capacity (%) (PKC-α (purified isoform) [3]) | binding capacity (%) (PKC-α (purified isoform) [4]) | Binder | binding result [2]
no binding (tested: 200 µM) | 0% | – | – | Ac-KDANQLIGISI-NH2 (Synthetic peptide; also called peptide PRE 6) [PRE 6] | no binding (tested: 20X the primary antibody concentration)
no binding (tested: 200 µM) | – | 0% | 5.96% | Ac-RDAQNLIGISI-NH2 (Synthetic peptide; also called peptide PRE 11) [PRE 11] | –
– | – | 0% | 6.72% | Ac-ISIGILQNADK-NH2 (Synthetic peptide (retro form of PRE 4); also called peptide PRE 7) [PRE 7] | no binding (tested: 20X the primary antibody concentration)
no binding (tested: 200 µM) | 1.63% | – | – | Ac-RDAQNLI-NH2 (Synthetic peptide; also called peptide PRE 13; Ac-RDAQNLI-NH2) [PRE 13] | no binding (tested: 20X the primary antibody concentration)
